Assay results from patent publication US12459987B2, “Monoclonal antibodies for prevention and treatment of herpes simplex viral infections” (priority 2019, dated 2025).
Entries after “also recorded” stand apart in the source; their conditions may differ.

What was measured:
[1] = system: HSV-2 G infected cell lysates; assay: ELISA binding of recombinant antibodies to HSV-2 G infected cell lysates; parameters: species or system HSV-2 G strain; conditions: for Binding of recombinant antibodies to HSV-2 G lysates: ELISA, recombinant antibodies expressed in Expi293F cells; for Binding to HSV-lysate: Table 3 summary
Method: Binding of recombinant antibodies to HSV-2 G lysates was tested by ELISA. Both heavy and light chain V(D)J rearrangements were amplified from selected single B-cell culture wells (22D10, 32H6, 33B8, and 35H7) by standard RT-PCR. These cloned V(D)J rearrangements were introduced into expression vectors. Recombinant antibodies were obtained by co-transfection of these expression vectors into Expi293F cells. ≥4 mg of purified IgGs was obtained (not shown). […]
Briefly, mice were vaccinated with ΔgD-2 and then 16 days after vaccination, the draining, inguinal lymph nodes were harvested. GC B cells were isolated from these tissues and were cultured in Nojima cultures. Although overall cloning efficiency of GC B cells from these (shipped) tissues was lower than those from freshly isolated tissues (6% vs. 20%), 50 GC clones were obtained that were specific to HSV-2 G strain (HSV-2 G or HSV2-G) lysate. GC B cells from inguinal lymph nodes of mice vaccinated with ΔgD-2 were sorted directly into 96-well plates (1 cell/well). These GC B cells were then cultured in the presence of NB-21.2D9 feeder cells. After culture, presence of IgG was first determined by ELISA, and then the reactivity of culture supernatant IgG against HSV-2 G lysates (HSV-2 G) and uninfected Vero lysates were tested by ELISA.
Based on the obtained V(D)J sequences from each B-cell culture, paired heavy and light chains were re-expressed (as recombinant mouse IgG1 and IgG2c antibodies) in Expi293F cells (Kuraoka et al. Immunity 2016; DiLillo et al. Nature Medicine 2013). […] As expected, all recombinant antibodies reacted specifically with HSV-2 G lysates (FIG. 3). […] Binding of recombinant antibodies to HSV-2 G lysates was tested by ELISA. Both heavy and light chain V(D)J rearrangements were amplified from selected single B-cell culture wells (22D10, 32H6, 33B8, and 35H7) by standard RT-PCR. These cloned V(D)J rearrangements were introduced into expression vectors. Recombinant antibodies were obtained by co-transfection of these expression vectors into Expi293F cells. ≥4 mg of purified IgGs was obtained (not shown). […] These recombinant antibodies (≥4 mg each) were tested for identification of reacting antigen(s), in an in vitro FcγRIV activation assay (Promega FcγRIV ADCC Reporter Bioassay)(FIG. 4), and in vivo protection assay. […]

uninfected Vero lysate = assay: ELISA binding to control uninfected Vero lysate
Method: Binding of recombinant antibodies to HSV-2 G lysates was tested by ELISA. Both heavy and light chain V(D)J rearrangements were amplified from selected single B-cell culture wells (22D10, 32H6, 33B8, and 35H7) by standard RT-PCR. These cloned V(D)J rearrangements were introduced into expression vectors. Recombinant antibodies were obtained by co-transfection of these expression vectors into Expi293F cells. ≥4 mg of purified IgGs was obtained (not shown).
Based on the obtained V(D)J sequences from each B-cell culture, paired heavy and light chains were re-expressed (as recombinant mouse IgG1 and IgG2c antibodies) in Expi293F cells (Kuraoka et al. Immunity 2016; DiLillo et al. Nature Medicine 2013). […] As expected, all recombinant antibodies reacted specifically with HSV-2 G lysates (FIG. 3). […] Binding of recombinant antibodies to HSV-2 G lysates was tested by ELISA. Both heavy and light chain V(D)J rearrangements were amplified from selected single B-cell culture wells (22D10, 32H6, 33B8, and 35H7) by standard RT-PCR. These cloned V(D)J rearrangements were introduced into expression vectors. Recombinant antibodies were obtained by co-transfection of these expression vectors into Expi293F cells. ≥4 mg of purified IgGs was obtained (not shown). […]

HSV-2 = assay: Passive transfer in vivo protection assay, lethal HSV-2 challenge; parameters: species or system mice; conditions: for Mice protected from lethal challenge: IgG2c version, overall results from 2 independent experiments; for Mice protected from lethal challenge / Protection against lethal HSV-2 challenge: passive transfer; for in vivo protection: Table 3 summary; for Protection against lethal HSV-2 challenge: as IgG2c, overall survival, epithelial and neurological assays
Method: Mice were prime-boost immunized with ΔgD-2 and the spleens, draining lymph nodes or bone marrow were isolated. Germinal center (GC) B cells were then cultured on NB-21.2D9 cells (Nojima cultures). After culture, supernatants were screened for the presence of HSV-lysate binding IgG by ELISA. The V(D)J rearrangements amplified from selected GC B-cell cultures for the B-cell antigen receptor (BCR) repertoire analysis in GC B cell clones among individual mice were sequenced. Then, reconstituted antibodies from selected single GC B cell cultures and from single, bone marrow plasmacytes were evaluated for ability to activate the mFcγRIV in vitro and to protect mice in a passive transfer model.
Both IgG1 and IgG2c forms of 22D10, 33B8, and BMPC-23 antibodies (≥4 mg each) were assessed for reproducibility of in vivo protection assay, and any dependency on Ig isotype for protection. […] To test roles of Ig isotypes on ability to provide protection, IgG1 and IgG2c isotypes of these three antibodies were generated and assessed for ability to activate mFcγRIV signaling (as a measurement for ADCC), and for in vivo protection assay.

[2] = biological target: human herpesvirus glycoprotein B (gB) (Human herpesvirus 2, UniProt P08666); assay: Immunoprecipitation-Mass Spectrometry (IP-MS) target identification; format: binding
Method: FIG. 7A-7B. Immunoprecipitation-Mass Spectrometry (IP-MS) was performed to identify the binding targets of 22D10, 33B8, and BMPC-23 antibodies.
IP-MS was performed to identify the targets of 22D10, 33B8, and BMPC-23 antibodies.

[3] = biological target: glycoprotein B of HSV-1 (gB-1) (Human herpesvirus 1, UniProt P10211); assay: Luminex multiplex assay, binding to gB-1; conditions: Table 3 summary
Method: FIGS. 9A and 9B are graphs of median fluorescence intensity (MFI) versus IgG concentration (ng/ml), showing the binding of various recombinant antibodies to gB-1 as measured by Luminex multiplex assay.
BMPC-23 binds HSV-1 gB (gB-1). The gB-1 binding of the antibodies was determined by Luminex multiplex assay. Mixtures of antigen (gB-1)-conjugated microspheres (1,000 counts each) were added to each well of 96-well filter plates (Millipore). After washing with PBS containing 1% BSA, 0.05% Tween 20 and 0.05% NaN3, serially diluted recombinant antibodies (5E7, 19G7, 18G4, 22E10, 3A2, 17G3, 22D10, 32H6, 33B8, 25H7, BMPC-23, and S5V2-29) were added to the plates and incubated for 2 hours at room temperature, with mild agitation of the plates. Samples were diluted in PBS containing 1% cow milk, 1% BSA, 0.05% Tween 20 and 0.05% NaN3. After washing, PE goat anti-mouse IgG was added to the plates and incubated for 1 hour at room temperature with mild agitation. After washing, microspheres were resuspended in PBS containing 1% BSA, 0.05% Tween 20 and 0.05% NaN3 and fluorescent signals from each microsphere were measured in a Bio-Plex® 3D machine.
Finding gB-1 specific HSV antibodies. After Nojima culture (single B-cell culture), HSV-specific antibodies were cloned from germinal center B cells and tested for binding to HSV-1 gB-1 by Luminex multiplex assay as described above. FIGS. 9A and 9B show the gB-1 binding results for 10 antibodies in comparison with BMPC-23. With the exception of BMPC-23, the antibodies in Table 3 were derived from germinal center B cells (lymph nodes) taken 15-17 days after primary vaccination with ΔgD-2. BMPC-23 was derived from bone marrow plasmacytes taken 2 weeks post-boost with ΔgD-2. Nucleotide sequences and amino acid sequences for the heavy-chains and light chains are shown in Table 4, as are the amino acid sequences for the light chain and heavy chain CDR1, CDR2, and CDR3.

B1: 22D10: monoclonal antibody from germinal center B cell; IgH SEQ ID NO: 24, IgL SEQ ID NO: 26 (antibody, V domains shown)
VH: DVQLQESGPALVKPSQTVSLTCTVTGYSITNGNHWWNWIRQVSGSKLEWLGYIRSSGSSDSNPSLKSRISITRDTSKNQLFLHLNSMTTEDIATYYCARGGGLRHYFDYWGQGTTLTVSSA
VL: DIQMTQSPASLSASVGDTVTITCRASGNIHNYLAWYHQKQGKSPQLLVYHAETLTDGVPSRFSGSGSGTQYSLKINSLQPEDFGSYYCQHFWSTPYTFGGGTKLEIKR
modifications: 22D10 heavy chain; 22D10 light chain
- Binding of recombinant antibodies to HSV-2 G lysates [1]: Retention of HSV-2 G lysate-binding
- Binding to HSV-lysate [1]: Yes
- Binding to control, uninfected Vero lysate (uninfected Vero lysate): did not bind
- Mice protected from lethal challenge (HSV-2): 5/10
- in vivo protection (HSV-2): Yes
- Protection against lethal HSV-2 challenge (HSV-2): significant protection; also recorded: provides protection
- Binding target identified by IP-MS [2]: human herpesvirus glycoprotein B (gB)
- Target antigens [3]: (not gB)

B2: 33B8: monoclonal antibody from germinal center B cell; IgH SEQ ID NO: 28, IgL SEQ ID NO: 30 (antibody, V domains shown)
VH: EVKLVESGGGLVQPGGSLSLSCATSGFTFTDYYMNWVRQPPGKALEWLGFIRNKANGYTTEYSASVKGRFTISRDNSQSILYLQMNSLRAEDSATYYCACGNYVGYAMDYWGQGTSVTVSSA
VL: DIVMSQSPSSLAVSAGEKVTMSCKSSQSLLNSRTRKNYLAWYQQKPGQSPKLLIYWASTRESGVPDRFTGSGSGTDFTLTISSVQAEDLAVYYCKQSYNLYTFGGGTKLEIKR
modifications: 33B8 heavy chain; 33B8 light chain
- Binding of recombinant antibodies to HSV-2 G lysates [1]: Retention of HSV-2 G lysate-binding
- Binding to HSV-lysate [1]: Yes
- Binding to control, uninfected Vero lysate (uninfected Vero lysate): did not bind
- Mice protected from lethal challenge (HSV-2): 4/10
- in vivo protection (HSV-2): Yes
- Protection against lethal HSV-2 challenge (HSV-2): significant protection; also recorded: provides protection
- Binding target identified by IP-MS [2]: human herpesvirus glycoprotein B (gB)
- Target antigens [3]: (not gB)
